Consider 28 substances from article PMC3988174.

For test [1], the target named is atToc159 G-domain bait (Arabidopsis thaliana) (UniProt O81283). Put plainly: two-hybrid; pairwise split-ubiquitin yeast two-hybrid of isolated NubG-preys with Toc159G, Toc132G or Toc132AG bait in NMY51; growth on SD-LWHA (3-AT) and quantitative β-Gal assay, activity relative to a reference bait set to 100%.
Test [2] concerns the target atToc132 A- plus G-domains bait (Arabidopsis thaliana) (UniProt Q9SLF3). Described as above.
Test [3] concerns the target atToc132 G-domain bait (Arabidopsis thaliana) (UniProt Q9SLF3). The description is as above.
For test [4], the target named is T1, LHCA4(TP)-DHFRHis (Arabidopsis thaliana | not stated).
T1 sequence (P27521 whole entry, looked up): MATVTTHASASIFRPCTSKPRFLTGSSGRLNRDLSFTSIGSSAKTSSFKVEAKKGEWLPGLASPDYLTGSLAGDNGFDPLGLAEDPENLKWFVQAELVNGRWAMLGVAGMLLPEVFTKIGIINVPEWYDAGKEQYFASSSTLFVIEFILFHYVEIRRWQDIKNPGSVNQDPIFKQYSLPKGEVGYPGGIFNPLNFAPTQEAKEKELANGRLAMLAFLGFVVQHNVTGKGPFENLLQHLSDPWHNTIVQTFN
Put plainly: pull-down; solid phase binding assay: His-tagged TP-DHFR or DHFR immobilised on Ni-NTA resin (up to 800 pmol), incubated with 35S-labelled in vitro translated receptor, 25°C, 30 min, 50 mM Hepes-KOH pH 7.5, 5 mM MgCl2, 40 mM KOAc, 0.1% Triton X-100, 40 mM imidazole, 0.1 mM GTP; phosphorimager.

For test [5], the target named is T2, FNR1(TP)-DHFRHis (Arabidopsis thaliana | not stated).
T2 sequence (Q9FKW6 whole entry, looked up): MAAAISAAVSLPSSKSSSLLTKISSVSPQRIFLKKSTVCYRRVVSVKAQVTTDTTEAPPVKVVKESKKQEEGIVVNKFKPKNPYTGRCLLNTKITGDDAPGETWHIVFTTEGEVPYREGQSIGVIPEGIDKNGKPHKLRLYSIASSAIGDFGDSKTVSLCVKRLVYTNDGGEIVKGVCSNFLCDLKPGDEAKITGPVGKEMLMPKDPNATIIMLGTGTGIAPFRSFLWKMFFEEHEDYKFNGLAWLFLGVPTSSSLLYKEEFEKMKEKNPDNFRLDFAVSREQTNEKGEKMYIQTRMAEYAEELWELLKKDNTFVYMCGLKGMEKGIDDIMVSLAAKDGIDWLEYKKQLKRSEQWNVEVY
The description is as above.

atToc132 G-domain bait (Arabidopsis thaliana), sequence (Q9SLF3 456-794): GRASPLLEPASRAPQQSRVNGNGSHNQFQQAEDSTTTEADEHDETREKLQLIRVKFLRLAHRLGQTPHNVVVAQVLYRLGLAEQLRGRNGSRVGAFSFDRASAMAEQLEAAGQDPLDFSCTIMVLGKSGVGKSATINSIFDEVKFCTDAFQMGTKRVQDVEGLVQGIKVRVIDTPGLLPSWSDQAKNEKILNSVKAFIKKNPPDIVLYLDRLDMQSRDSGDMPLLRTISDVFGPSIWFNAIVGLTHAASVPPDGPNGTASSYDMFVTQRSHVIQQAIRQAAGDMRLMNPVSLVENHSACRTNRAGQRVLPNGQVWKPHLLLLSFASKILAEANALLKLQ
atToc132 A- plus G-domains bait (Arabidopsis thaliana), sequence (Q9SLF3 1-794): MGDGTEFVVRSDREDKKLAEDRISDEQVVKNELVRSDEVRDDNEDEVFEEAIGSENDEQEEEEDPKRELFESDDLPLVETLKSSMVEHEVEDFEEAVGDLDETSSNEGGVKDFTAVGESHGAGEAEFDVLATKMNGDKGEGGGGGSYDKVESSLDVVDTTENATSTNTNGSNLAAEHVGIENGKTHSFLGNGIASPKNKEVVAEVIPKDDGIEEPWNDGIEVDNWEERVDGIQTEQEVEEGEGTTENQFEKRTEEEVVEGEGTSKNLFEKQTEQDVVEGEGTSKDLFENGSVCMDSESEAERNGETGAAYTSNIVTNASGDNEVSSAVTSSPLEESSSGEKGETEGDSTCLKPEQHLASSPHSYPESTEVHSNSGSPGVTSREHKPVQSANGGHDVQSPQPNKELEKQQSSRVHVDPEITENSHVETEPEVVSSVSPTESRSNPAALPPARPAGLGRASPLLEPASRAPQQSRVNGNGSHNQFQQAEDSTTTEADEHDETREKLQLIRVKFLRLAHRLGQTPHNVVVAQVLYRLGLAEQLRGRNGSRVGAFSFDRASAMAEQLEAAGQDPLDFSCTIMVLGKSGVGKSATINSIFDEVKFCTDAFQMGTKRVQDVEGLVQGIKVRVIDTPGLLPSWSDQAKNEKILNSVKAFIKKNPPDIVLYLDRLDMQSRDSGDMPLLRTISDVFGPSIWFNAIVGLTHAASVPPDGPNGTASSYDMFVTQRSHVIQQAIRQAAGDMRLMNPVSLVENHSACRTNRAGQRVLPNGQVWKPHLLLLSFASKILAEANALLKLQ
atToc159 G-domain bait (Arabidopsis thaliana), sequence (O81283 728-1092): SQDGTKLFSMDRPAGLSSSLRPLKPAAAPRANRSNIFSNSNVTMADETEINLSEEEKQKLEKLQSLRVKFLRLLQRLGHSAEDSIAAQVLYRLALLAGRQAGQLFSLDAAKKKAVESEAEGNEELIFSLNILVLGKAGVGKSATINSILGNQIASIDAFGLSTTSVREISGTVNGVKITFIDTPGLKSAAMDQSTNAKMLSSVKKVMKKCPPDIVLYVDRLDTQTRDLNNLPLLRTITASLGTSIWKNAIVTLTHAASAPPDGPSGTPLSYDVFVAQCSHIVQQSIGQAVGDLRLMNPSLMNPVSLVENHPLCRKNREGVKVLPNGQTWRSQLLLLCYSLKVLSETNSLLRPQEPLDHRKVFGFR
[35S]atToc132AG, sequence (Q9SLF3 1-794): as the sequence (Q9SLF3 1-794) above
[35S]atToc159AG, sequence (O81283 1-1092): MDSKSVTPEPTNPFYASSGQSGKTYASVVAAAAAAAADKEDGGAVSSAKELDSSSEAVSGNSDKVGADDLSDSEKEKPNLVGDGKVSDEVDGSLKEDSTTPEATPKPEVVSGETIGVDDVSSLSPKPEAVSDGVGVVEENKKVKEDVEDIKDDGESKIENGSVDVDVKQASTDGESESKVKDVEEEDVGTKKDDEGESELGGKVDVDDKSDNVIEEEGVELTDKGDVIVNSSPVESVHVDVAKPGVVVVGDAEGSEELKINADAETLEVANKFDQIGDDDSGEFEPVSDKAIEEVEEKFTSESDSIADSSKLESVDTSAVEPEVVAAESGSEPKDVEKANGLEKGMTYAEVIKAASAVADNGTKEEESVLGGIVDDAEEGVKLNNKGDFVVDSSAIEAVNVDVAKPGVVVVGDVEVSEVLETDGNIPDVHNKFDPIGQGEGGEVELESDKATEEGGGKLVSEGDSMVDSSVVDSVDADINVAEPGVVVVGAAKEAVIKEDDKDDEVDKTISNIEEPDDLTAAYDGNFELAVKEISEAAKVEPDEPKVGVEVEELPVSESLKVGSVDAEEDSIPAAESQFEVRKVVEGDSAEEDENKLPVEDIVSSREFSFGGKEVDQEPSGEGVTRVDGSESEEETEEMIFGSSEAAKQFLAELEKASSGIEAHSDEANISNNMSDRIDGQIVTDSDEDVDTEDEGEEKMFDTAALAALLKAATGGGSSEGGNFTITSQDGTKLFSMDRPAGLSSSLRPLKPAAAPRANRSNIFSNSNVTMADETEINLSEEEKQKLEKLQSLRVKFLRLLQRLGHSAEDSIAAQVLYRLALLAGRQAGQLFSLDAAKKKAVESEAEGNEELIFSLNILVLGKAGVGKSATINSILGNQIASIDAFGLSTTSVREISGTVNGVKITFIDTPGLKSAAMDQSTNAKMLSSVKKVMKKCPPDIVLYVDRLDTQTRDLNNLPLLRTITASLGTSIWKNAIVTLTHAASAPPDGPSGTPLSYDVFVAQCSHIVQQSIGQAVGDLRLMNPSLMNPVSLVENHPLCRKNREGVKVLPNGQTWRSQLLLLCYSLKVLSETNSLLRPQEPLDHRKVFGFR
Photosystem I subunit L, sequence (Q9SUI4 whole entry): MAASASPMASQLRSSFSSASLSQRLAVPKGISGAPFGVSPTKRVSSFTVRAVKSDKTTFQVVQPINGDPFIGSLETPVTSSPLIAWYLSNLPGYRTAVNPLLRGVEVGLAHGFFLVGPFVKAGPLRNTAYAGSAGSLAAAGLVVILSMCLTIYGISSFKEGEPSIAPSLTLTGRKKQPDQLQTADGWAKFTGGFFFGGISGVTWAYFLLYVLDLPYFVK
THI1 -involved in thiamine synthesis (vitamin B), sequence (Q38814 whole entry): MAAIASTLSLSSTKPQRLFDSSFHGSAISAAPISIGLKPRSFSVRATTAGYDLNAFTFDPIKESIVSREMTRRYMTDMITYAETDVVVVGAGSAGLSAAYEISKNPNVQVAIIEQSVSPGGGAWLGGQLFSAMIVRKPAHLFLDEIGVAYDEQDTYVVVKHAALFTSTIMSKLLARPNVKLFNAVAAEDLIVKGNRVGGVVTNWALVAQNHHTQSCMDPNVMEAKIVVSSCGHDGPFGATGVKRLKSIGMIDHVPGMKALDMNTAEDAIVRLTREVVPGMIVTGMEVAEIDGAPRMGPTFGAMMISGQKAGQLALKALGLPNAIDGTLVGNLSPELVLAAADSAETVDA
Photosystem II Subunit P-1, sequence (Q42029 whole entry): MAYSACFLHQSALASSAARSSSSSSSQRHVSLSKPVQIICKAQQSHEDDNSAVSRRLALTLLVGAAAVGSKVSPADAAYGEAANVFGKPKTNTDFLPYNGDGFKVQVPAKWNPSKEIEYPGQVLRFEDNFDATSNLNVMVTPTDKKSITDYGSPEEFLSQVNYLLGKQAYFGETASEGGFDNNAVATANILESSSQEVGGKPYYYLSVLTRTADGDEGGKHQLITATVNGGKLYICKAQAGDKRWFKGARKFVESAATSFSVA
ATP carrier protein 1, sequence (P31167 whole entry): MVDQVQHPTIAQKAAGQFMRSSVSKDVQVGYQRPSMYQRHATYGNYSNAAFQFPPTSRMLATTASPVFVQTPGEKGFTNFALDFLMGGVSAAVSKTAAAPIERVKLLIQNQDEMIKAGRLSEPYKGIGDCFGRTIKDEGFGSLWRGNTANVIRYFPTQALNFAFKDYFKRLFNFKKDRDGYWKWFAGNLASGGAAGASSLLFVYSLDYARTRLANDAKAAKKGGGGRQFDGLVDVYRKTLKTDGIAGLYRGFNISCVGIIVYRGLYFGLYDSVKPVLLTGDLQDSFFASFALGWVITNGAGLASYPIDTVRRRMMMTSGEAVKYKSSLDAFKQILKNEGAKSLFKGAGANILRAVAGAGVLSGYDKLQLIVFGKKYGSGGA
Photosystem I subunit D-1, sequence (Q9S7H1 whole entry): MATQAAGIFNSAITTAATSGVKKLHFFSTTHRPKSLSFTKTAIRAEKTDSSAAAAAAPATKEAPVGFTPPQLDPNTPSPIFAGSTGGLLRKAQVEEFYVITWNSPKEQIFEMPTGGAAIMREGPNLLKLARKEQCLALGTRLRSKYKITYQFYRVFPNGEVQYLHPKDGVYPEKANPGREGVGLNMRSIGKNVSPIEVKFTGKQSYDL
Photosystem I light harvesting complex gene 1, sequence (Q01667 whole entry, one chain of several): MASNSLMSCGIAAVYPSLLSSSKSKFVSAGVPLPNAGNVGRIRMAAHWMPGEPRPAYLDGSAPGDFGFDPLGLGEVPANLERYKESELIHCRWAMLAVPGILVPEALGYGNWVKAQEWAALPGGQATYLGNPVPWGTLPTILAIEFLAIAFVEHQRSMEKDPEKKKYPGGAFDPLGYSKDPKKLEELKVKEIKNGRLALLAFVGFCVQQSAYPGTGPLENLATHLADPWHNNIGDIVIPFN

For the substance “Photosystem II 5 kD protein (natural protein)”, in test [1], the % decrease in strength of interaction (β-Gal) with Toc159G against Toc132G is -26.1%. Take “Rhomboid-Like Protein 11 (from UniProt Q84MB5 1-280) (natural protein)”: the % increase in strength of interaction (β-Gal) with Toc132AG against Toc132G in test [2] came to 98%. “ATPase, F0 complex, subunit B/B’ (from UniProt Q42139 1-219) (natural protein)” yielded a % increase in strength of interaction (β-Gal) with 132G against 159G in test [3] of 16.5%. Regarding “Membrane-associated progesterone binding protein 3 (from UniProt Q9M2Z4 1-233) (natural protein)”, in test [2], the % increase in strength of interaction (β-Gal) with Toc132AG against Toc132G was 115%. For the same substance, the relative β-Gal activity with 132G bait, % higher than with 159G bait in test [3] worked out at 77.5%.

Turning to “Copper Chaperone (from UniProt O82089 1-121) (natural protein)”, the % increase in strength of interaction (β-Gal) with Toc132AG against Toc132G in test [2] was 285%. In addition, the relative β-Gal activity with 132G bait, % lower than with 159G bait in test [3] came to 27%. On to “Acyl Carrier Protein 2 (from UniProt P25701 1-136) (natural protein)”, for which the % increase in strength of interaction (β-Gal) with Toc132AG against Toc132G in test [2] came to 62.2%. Turning to “Photosystem I subunit L (from UniProt Q9SUI4 1-219) (natural protein)”, in test [1], the % decrease in strength of interaction (β-Gal) with Toc159G against Toc132G was -26.8%.

In test [1], “Photosystem I light harvesting complex gene 1 (from UniProt Q01667 1-241) (natural protein)” displayed a % increase in strength of interaction (β-Gal) with Toc159G against Toc132G of 11.3%.

With “Plastocyanin 2 (from UniProt P42699 1-167) (natural protein)”, the % decrease in strength of interaction (β-Gal) with Toc159G against Toc132G in test [1] was -29.6%. For “ATP carrier protein 1 (from UniProt P31167 1-381) (natural protein)”, in test [3], the % increase in strength of interaction (β-Gal) with 132G against 159G stood at 50.6%. For “Photosystem I reaction centre subunit IV (from UniProt Q9S831 1-143) (natural protein)”, the % decrease in strength of interaction (β-Gal) with Toc159G against Toc132G in test [1] is -27.1%.

Take “Photosystem I P Subunit (from UniProt Q8LCA1 1-174) (natural protein)”: in test [1], the % decrease in strength of interaction (β-Gal) with Toc159G against Toc132G was -28.2%. In the case of “ThiaminC (from UniProt O82392 1-644) (natural protein)”, in test [2], the % increase in strength of interaction (β-Gal) with Toc132AG against Toc132G worked out at 60.6%. The substance also displayed a relative β-Gal activity with 132G bait, % higher than with 159G bait in test [3] of 25.3%.

As to “Glucose-6-phosphate transmembrane transporter (from UniProt Q9M5A9 1-388) (natural protein)”, the % increase in strength of interaction (β-Gal) with Toc132AG against Toc132G in test [2] came out at 55.2%. The same measure, in the same setting: the value for “Chaperonin 60 Beta (from UniProt P21240 1-600) (natural protein)” was 55.8%.

Turning to “Light-Harvesting Chlorophyll B-Binding Protein 3 (from UniProt Q9S7M0 1-265) (natural protein)”, in test [1], the % decrease in strength of interaction (β-Gal) with Toc159G against Toc132G is -5.52%.

In turn, “PGR5-Like A (from UniProt Q8H112 1-324) (natural protein)” had a % increase in strength of interaction (β-Gal) with Toc159G against Toc132G in test [1] of 13%.

Consider “Plastidial Dihydrolipoamide Acetyltransferase (from UniProt Q9C8P0 1-465) (natural protein)”, for which the % increase in strength of interaction (β-Gal) with Toc132AG against Toc132G in test [2] came to 33.6%. Turning to “[35S]atToc159AG (from UniProt O81283 1-1092) (domain or fragment)”, the percent bound at 800 pmol LHCA4(TP)-DHFR in test [4] is 38.2%. This substance returned a percent bound at 800 pmol FNR1(TP)-DHFR in test [5] of 51.9%. With “Photosystem I subunit D-1 (from UniProt Q9S7H1 1-208) (natural protein)”, the % decrease in strength of interaction (β-Gal) with Toc159G against Toc132G in test [1] is -12.2%. Still for that read-out and setting: in the case of “Photosystem II Subunit S (from UniProt Q9XF91 1-265) (natural protein)” it was -11.9%. Turning to “Light-harvesting chlorophyll-protein complex II subunit B1 (natural protein)”, in test [2], the relative strength of interaction (β-Gal) with Toc132AG against Toc132G, % change is -25.9%. The % increase in strength of interaction (β-Gal) with Toc159G against Toc132G in test [1] was 26.4%. “Photosystem II Subunit P-1 (from UniProt Q42029 1-263) (natural protein)”: in test [1], the % decrease in strength of interaction (β-Gal) with Toc159G against Toc132G was -6.7%. On to “[35S]atToc132AG (from UniProt Q9SLF3 1-794) (domain or fragment)”, for which the percent bound at 800 pmol LHCA4(TP)-DHFR in test [4] is 15%. This substance returned a percent bound at 800 pmol FNR1(TP)-DHFR in test [5] of 8.7%. In test [3], “Lipid-transfer protein (natural protein)” yielded a % increase in strength of interaction (β-Gal) with 132G against 159G of 38.1%. The same measure, in the same setting: the value for “THI1 -involved in thiamine synthesis (vitamin B) (from UniProt Q38814 1-349) (natural protein)” was 52%. On to “Thioredoxin M-Type 4 (from UniProt Q9SEU6 1-193) (natural protein)”, for which the % increase in strength of interaction (β-Gal) with Toc132AG against Toc132G in test [2] was determined as 93.8%. Besides, the relative β-Gal activity with 132G bait, % higher than with 159G bait in test [3] was 25%.

“Photosystem I subunit E-2 (from UniProt Q9S714 1-145) (natural protein)”: the % reduction in strength of interaction (β-Gal) with Toc132AG against Toc132G in test [2] was 50%. In addition, in test [1], the % increase in strength of interaction (β-Gal) with Toc159G against Toc132G worked out at 14.4%.
